Reference: patent publication US20190367628A1 (Novartis, published 2019)
Positions count from the first letter of the chain named.

T1: human BCMA (antigen of the surface plasmon resonance measurement of PI-61) (human, UniProt Q02223 1-54, limits assumed)
T1 construct: Construct used in the SPR experiment is not described
T1 sequence (looked up): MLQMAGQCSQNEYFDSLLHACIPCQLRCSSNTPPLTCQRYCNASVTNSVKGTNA

T2: Human BCMA-His-APP-Avi (human, biotinylated (captured on streptavidin plate; site not stated))
T2 construct: also called His-APP-Avi-tagged human BCMA
T2 chain: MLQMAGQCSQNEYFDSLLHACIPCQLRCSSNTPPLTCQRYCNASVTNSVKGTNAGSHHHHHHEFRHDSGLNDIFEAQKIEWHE

T3: recombinant human BCMA (human, UniProt Q02223 1-54, limits assumed)
T3 construct: The SET method says only 'recombinant human BCMA'; also called hBCMA; TNFRSF17
T3 sequence (looked up): T1 sequence (looked up)

B1: PI-61 antibody (as measured by surface plasmon resonance) (antibody, V domains shown)
VH: QVQLQESGGGVVQPGRSLRLSCAASGFTFSSYGMHWVRQAPGKGLEWVAVISYDGSNKYYADSVKGRFTISRDNSKNTLYLQMNSLRAEDTAVYYCGGSGYALHDDYYGLDVWGQGTLVTVSS
VL: QSALTQPASVSGSPGQSITISCTGTSSDVGGYNYVSWYQQHPGKAPKLMIYDVSNRPSGVSNRFSGSKSGNTASLTISGLQAEDEADYYCSSYTSSSTLYVFGSGTKVTVL
notes: also called parental clone
B2: PI-61 (monoclonal phage clone) (other)
VH: B1 VH
VL: B1 VL
B3: H2/L2-36 scFv (scFv)
scFv: QAQLQSSGGGVVQPGRSLRLSCAASGFTFSSYGMHWVRQAPGKGLEWVAVISYKGSNKYYADSVKGRFTISRDNSKNTLYLQMNSLRAEDTAVYYCGGSGYALHDDYYGLDVWGQGTLVTVSSSGGGGSGGGGSGGGGSGGGGSQSALTQPASVSGSPGQSITISCTGTSSDVGGYNYVSWYQQHPGKAPKLMIYEVSNRLRGVSNRFSGSKFGNTASLTISGLQAEDEADYYCSSYTSSSTLYVFGSGTKVTVL
B4: H2/L2-34 scFv (scFv)
scFv: QVQLQDSEGGVVQPGRSLRLSCAASGFTFSSYGMHWVRQAPGKGLEWVAVISYTGTKKYYADSVKGRFTISRDNSKNTLYLQMNSLRAEDTAVYYCGGSGYALHDDYYGLDVWGQGTLVTVSSSGGGGSGGGGSGGGGSGGGGSQSALTQPASVSGSPGQSITISCTGTSSDVGGYNYVSWYQQHPGKAPKLMIYDVSNRPWGVSNRFSGSKFGNTASLTISGLQAEDEADYYCSSYTSSSALYVFGSGTKVTVM
B5: H2/L2-20 scFv (scFv)
scFv: B3 scFv with F29V, K54T, E196D, T242A
B6: H2/L2-83 scFv (scFv)
scFv: B3 scFv with S6G
B7: H2/L2-18 scFv (scFv)
scFv: B3 scFv with S6G, N57H, E196D, L201P, R202W
B8: H2/L2-47 scFv (scFv)
scFv: B3 scFv with A2V, G8E, E196D, L201P, R202W
B9: H2/L2-88 scFv (scFv)
scFv: B3 scFv with A2V, G8E, T242A
B10: H2/L2-80 scFv (scFv)
scFv: B3 scFv with A2V, K54T, E196D, L201A, R202W, T242A
B11: H2/L2-68 scFv (scFv)
scFv: B3 scFv with G8E, K54R, S56F, L110Q, E196D, R202S
B12: BCMA-CD3 bispecific antibody AB3 (bispecific antibody)
chain 1: not shown
chain 2: QSALTQPASVSGSPGQSITISCTGTSSDVGGYNYVSWYQQHPGKAPKLMIYDVSNRLRGVSNRFSGSKSGNTASLTISGLQAEDEADYYCSSYTSSSALYVFGSGTKVTVLGQPKAAPSVTLFPPSSEELQANKATLVCLISDFYPGAVTVAWKADSSPVKAGVETTTPSKQSNNKYAASSYLSLTPEQWKSHRSYSCQVTHEGSTVEKTVAPTECS
chain 3: not shown

Target: T4, cynomolgus BCMA (antigen of the surface plasmon resonance measurement of PI-61) (cynomolgus, UniProt A0A2K5UD97 1-53)
T4 construct: Construct used in the SPR experiment is not described; also called cyno BCMA; not shown: The carrier or tag of the soluble cyno BCMA used in SPR
T4 sequence (A0A2K5UD97 entry or part of it limits assumed): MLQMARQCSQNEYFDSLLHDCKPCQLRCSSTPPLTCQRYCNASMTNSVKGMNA
Assay: surface plasmon resonance

Binder | Kd
B1 | ~240 nM

Target: T1, human BCMA (antigen of the surface …)
Assay: surface plasmon resonance

Binder | Kd
B1 | ~34 nM

Target: T2, Human BCMA-His-APP-Avi
Assay: monoclonal phage ELISA, anti-M13-HRP, Abs450 against fold dilution of phage

Binder | binding result
B2 | binds

Target: T5, Cyno BCMA APP-Avi (cynomolgus, biotinylated (site not stated))
T5 construct: It was used as soluble biotinylated antigen; also called biotinylated cyno BCMA
T5 sequence (chain, as listed by the source limits assumed): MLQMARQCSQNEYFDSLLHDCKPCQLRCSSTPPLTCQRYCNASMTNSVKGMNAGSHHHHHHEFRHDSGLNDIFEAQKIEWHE
Assay: flow cytometry of single yeast clone displaying the scFv, labelled with 900 pM biotinylated cyno BCMA, streptavidin/neutravidin-DyLight 633 detection
Experimental: (§1) For the fourth round of screening, yeast from the third round output were pelleted, washed, and resuspended in 200 mL SD-ura broth with 1% raffinose, 2% galactose, and incubated for 22 hours at 20° C. to induce expression. […] The first sample was incubated with human BCMA for 45 min at room temperature, pelleted, washed twice with PBSF, and then resuspended in 1 mL PBSF (PBS with 0.1% BSA). The second sample was incubated with human BCMA for 45 minutes at room temperature. Both samples were pelleted, washed twice with PBSF, and resuspended in 200 uL of PBSF+a 1:30 dilution of rabbit anti-cMyc-FITC (Abcam)+a 1:100 dilution of neutravidin-dylight 633 (Invitrogen). Samples were incubated at 4 C for 30 min, pelleted, washed twice with PBSF, resuspended in 3 mL PBSF, filtered through 40 um filters, then sorted using flow cytometry on a FACS Aria cell sorter (Becton Dickinson Biosciences, San Jose, Calif.). Approximately 5×10⁵ yeast were isolated and resuspended in 4 mL SD-ura broth with 2% glucose and grown overnight at 30° C.
(§2) Each sample plate was used to create three test plates for flow cytometric analysis. […] Labeling was essentially as above for sorting, except using 1:200 each streptavidin-dylight 633 (Invitrogen) and neutravidin-dylight 633 (Invitrogen) in PBSF as secondary reagent and excluding any anti-cMyc antibody. The test plates were analyzed on a Cytoflex flow cytometer (Beckman Coulter, Brea, Calif.)

Binder | MFI
B3 | 5590 MFI
B4 | 6050 MFI
B5 | 7030 MFI
B6 | 4880 MFI
B7 | 7180 MFI
B8 | 5930 MFI
B9 | 6440 MFI
B10 | 6540 MFI
B11 | 7380 MFI

Target: T5, Cyno BCMA APP-Avi
Assay: flow cytometry of single yeast clone displaying the scFv, labelled with 20 nM biotinylated cyno BCMA, streptavidin/neutravidin-DyLight 633 detection
Experimental: as §1, §2

Binder | MFI
B3 | 6430 MFI
B4 | 10400 MFI
B5 | 20700 MFI
B6 | 10700 MFI
B7 | 19900 MFI
B8 | 14200 MFI
B9 | 4480 MFI
B10 | 17900 MFI
B11 | 16200 MFI

Target: T3, recombinant human BCMA
Assay: solution equilibrium titration (SET, MSD); apparent KD; bispecific at a fixed concentration, BCMA titrated in solution

Binder | Kd
B12 | 0.0615 nM

Target: T6, recombinant cynomolgus monkey BCMA (cynomolgus monkey, UniProt A0A2K5UD97 1-53)
T6 construct: The SET method says only 'recombinant cynomolgus monkey BCMA'; also called Cyno BCMA; cynoBCMA
Assay: as above

Binder | Kd
B12 | 0.105 nM
